Molecular target: human p21-activated kinase 1 (PAK1) (human) (UniProt Q13153)
Experiment: cell-based or functional assay

UniProt Q13153, sequence (Q13153 whole entry R237L/F379S, form in doubt): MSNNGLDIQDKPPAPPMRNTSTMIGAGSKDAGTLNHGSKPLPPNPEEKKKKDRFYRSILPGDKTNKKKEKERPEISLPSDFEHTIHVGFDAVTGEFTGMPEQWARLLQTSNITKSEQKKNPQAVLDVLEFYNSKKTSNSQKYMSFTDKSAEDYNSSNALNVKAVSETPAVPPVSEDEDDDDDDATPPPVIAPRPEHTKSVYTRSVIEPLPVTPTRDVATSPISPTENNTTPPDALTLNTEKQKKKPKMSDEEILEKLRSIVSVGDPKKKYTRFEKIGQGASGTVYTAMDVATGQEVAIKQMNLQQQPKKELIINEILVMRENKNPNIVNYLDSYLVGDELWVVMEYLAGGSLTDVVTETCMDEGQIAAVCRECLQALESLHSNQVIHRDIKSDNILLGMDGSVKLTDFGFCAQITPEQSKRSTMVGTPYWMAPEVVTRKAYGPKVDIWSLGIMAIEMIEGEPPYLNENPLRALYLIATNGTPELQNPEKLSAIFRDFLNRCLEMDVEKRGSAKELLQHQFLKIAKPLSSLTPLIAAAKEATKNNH

inhibition of IL-1β induced expression of PGE2 in SW1353 cells (ELISA of supernatant): > 50% | inhibition of IL-1β-induced expression of MMP13 in SW1353 cells (ELISA of supernatant): 55% | inhibition of basal MMP13 expression in non-stimulated SW1353 cells (ELISA of supernatant): > 80%
Substance: HA-tagged PAK1 inhibitory domain (PAK1 residues 83 to 149) (from UniProt P35465 83-149)

From patent EP2275116A1
